Assay results taken from the DeepSol protein solubility set.

Assay: soluble on expression in E. coli; label from the status in PepcDB or PDB records

Row | Sequence | soluble on expression in E. coli
1 | MGSDKIHHHHHHALSSIEKIQGKDRYETAAKIAQKQTYENVVLVNTDNTLADGLSASGLAGTVKAPILLSQRNSIPSDTEKMLKDVKKVYIIGTEDSIGKSVENELKQKGIEVKRIGGNDRIETSYLIAKEIASIKPIDKVFITNGYTGEADAMSASSVASRDGAPIILTNGKNVPFEKKEGVQCYALGSEEIISNDLVKKTNSVRLAGEDRFETNKKVIKHFYSSAKEFYLSKGYQLVDAVAGSSIAKNAPIVLVDGNSDKSVLRSADKITALGGIDEKTLEQCLSASSLDASAPTITVGNLNIYQGDKFDISKLNIVAKDSNGNDLTPELIGNINTDKVGKYKVTIKATDIGGKTTSISVEVNVLEYKTNDMNSSEFKRMVSSEMYSLVNSYRKEKGKEPLQVSENLQGMANYWSKYMADKGEFAHVINGKNAAEVFSGGIRSEENIAFVPLTTKSTYTTKDAREVANVIFTVWKKSDKYNENMLSSKFAYTGFGLYILPDGQVYATQEFLNK | not soluble
2 | MGIHKPKFYAVRAGRDKGVFSSWEECRKAIYGFSGAVYRSFPTLEEAQAWFKGETLSDPLKAEDDSLRDDRTEYDVYTDGSYVNGQYAWAYAFVKDGKVHYEDADVGKNPAAATMRNVAGEIAAALYAVKKASQLGVKIRILHDYAGIAFWATGEWKAKNEFTQAYAKLMNQYRGIYSFEKVKAHSGNEFNDYVDMKAKSALGIRDLEHHHHHH | not soluble
3 | MTTPLISIRNLCVDYITDAGDVRACNNVSFDLAPGEVFGLAGESGCGKSTVAFSLMRLHKPPAFITGGEVIFNGEDILKYSDERMQAFRWKEMSMVFQSAMNALNPVLTMEEQFCDVITRHTNMTREQAKRRAEGLLEIVDIHPSRLNDYPHQFSGGMRQRLVIAIALALNPKMIIMDEPTTALDVVVQREILQKIYALKEEFGFSILFITHDLSLMVEFSDRIGIMYSGELIEVAPSKQILETPYHPYTKGLGSSFPPLTGPKTKLTGIPGNPLNLLDIPQGCRFQARCDRVHEACTKVPTVLRQIEHGRFSNCHLYTQSNATIKR | not soluble
4 | MGSDKIHHHHHHMNVAIIGCGYVGYQVAQYWQQKMNFVVSTTTTSPERVPALQSVSQRVFVTSGNDLDSLKSVLHNQDVVLLSVGAKGAEVYEETYLQTAQNLVSCLQQNPSVKQLIYTGSYAVYGDRNGVWVDEETPLAPANLNAQILRKTEDILLSASSENLRVCIFRLGGIYGPGRELLKIFSRYSGTNRPGGEDITNWIHLDDIVGAIEFARNRRLQGIYNLVDDAHLTSRDLLDSLFEKHNLPKVIWDTTVKSTRPYNAWVSNEKLKEAGYQLIHPQMIF | not soluble
5 | MGSDKIHHHHHHMVYVNANVDTKVDNRKDNCDNTNTYSHTVDRKDNFDNTTTNTKTVNRNDNCNNQEEGDVNMYRRNDNCNNREATNSRSANYSIHNQGMINCYNGIAIDNRAFNSSGANTMAGTEFLRAFLDAPMSVMPGSRKNAIMDRQEGSTQPAIRYNNR | not soluble
6 | MLSEEDVHTNSYAGRTVAVMEQPDLFSDDCDEINLGNEDTPPSKLRLHTTEEPKESSSPAVINSIEDHDQYVGNDNHYAQISPEPALSNFKVTMREFEKRGDGMNAYIVYKLETEVSGVVGYTKQHYETWRRFSDFLGLHGKIVEKYLAKGIVIPQPPEKSISALTKTKTNSDPAMSREVGIQRARQLERYICRLIQHPRMRNDCDVRDFLTIESDLPKAVQTAALSSFGVKKIFKNFQVVFSKMAFHMEEGDRWFEQVQSQVDELDEALRKLYTVTETLVASRRDMATSGEQLGKALSMLAACEESTSLSRALSSLTDVTENVSAVYGKQAEVDNSKFSESIYEYIMLISALKDVFGERVRAWQQWQDAQQTLARKRDQKTKIDLSAGGRNERSDQLKGEIEDTVQKMDQLEQHFIELSKAIREEVARFDADRKQDMKKMLVEYMESMIHTHTELLHLWEKFEPEANNIRV | not soluble
7 | MSVASNRDAVVTARRRFFGEGRSVDGMLAAPILRSWQRCAGQGLDASRSPLVEPPTARELREFQERHDRLGRLARPELNALQGDARLTGSVVILTDAAGVVLDMIGSDEFAGRAAQVALRPGVSWSEADTGTNAIGTALVERQPIAVHGAEHFFERHRILACAAAPLIDPRGVVAGALDMTGPAAIRHVHALGLMRLAAEQIEHRFFTEGFEHCTMLRLHTDRALLGTPREGVLAFADGVLVGANRHGLDLMNLDWPALDLARLETLLPGVRPSDQIQMLRGPRGTRLWGRLVDPLRRSPRAPAASMPAAVPAAPAGEVEPILDAEMMAQLSRTVRLVEAGIPVLLLGETGSGKDVFARRVHAESARRNKPFVPVNCAALPEGLIESELFGYEAGAFTGARRQGAPGLLRQADGGVLFLDEIGDMPLSLQSRLLRVLQDKQISPLGGGRPVPVDFALICATHQPLGTLLAAGAFRQDLYFRIAQYVVERPPVRHHPDRLALVRTLWRQLGGEDAGVQLSAEVERVLAAYNWPGNYRQLVGTLRALLVLGEPGHPVEVAALPAEITAAAGAVESQVSEMLPGTSLAEQTRSVLQAALDASGGNVSRAARRLGIDRSTYYRRLLKDKDRGR | not soluble
8 | MGSDKIHHHHHHMSDRNTSNSLTLKERMLSAGAGSVLTSLILTPMDVVRIRLQQQQMIPDCSCDGAAEVPNAVSSGSKMKTFTNVGGQNLNNAKIFWESACFQELHCKNSSLKFNGTLEAFTKIASVEGITSLWRGISLTLLMAIPANMVYFSGYEYIRDVSPIASTYPTLNPLFCGAIARVFAATSIAPLELVKTKLQSIPRSSKSTKTWMMVKDLLNETRQEMKMVGPSRALFKGLEITLWRDVPFSAIYWSSYELCKERLWLDSTRFASKDANWVHFINSFASGCISGMIAAICTHPFDVGKTRWQISMMNNSDPKGGNRSRNMFKFLETIWRTEGLAALYTGLAARVIKIRPSCAIMISSYEISKKVFGNKLHQ | not soluble
9 | MNYTEHYHDWLRDAHAMEKQAESMLESMASRIENYPDIKARIEQHISETKHQITMLEEVLDRNGISRSVLKDSMSKMAAMGQSIGGMFPSDEIVKGSISGYVFEQFEIACYTSLLAAAKKAGDTASIPTIEAILKEEMQMADWLIKHIPQTTEQFLLRSEADGVEAKK | not soluble
10 | MERDTVVKEVVEALKIFSRDIRTQIDEMGSQLRAEIQDTANQLRAEIQDTANQLRAEMQETANQLRAEMQETANQLRAEMQQFRAEVNERFDRLEQKFAGLRVELTETQETVHFLASKTIQHEKKLHHLAKQLESIR | not soluble
11 | MQAIAIDQFSEPEETQVEQVENPDRNEAGYEVCNQSGENLSVAIAYFDTSIDSYRSEGWWNLDQSKCQFFPNLLDSVDEVYVFAESDQTLWSGDFPFCMQEDAFEYPDANRDRCPSPAYSKGFLKVEVGDAKTWTTNLTPSQLEHHHHHH | not soluble
12 | MTENVPLTRPQLRRLLRNARRALTPAQQRQATLGLYRQLAQHPLFRRARHIALYLPNDGEIDPRLLMREAQRRGKCIYLPVLHAWPRTRMVFQRFEQGEKLKPNRFRIPEPIIDRKRQRPIWALDLILLPLVGFDEVGGRLGMGGGFYDRSLAYQARRQTWKKPLLLGLAHECQKVERLAQASWDVPLQGTVSDRGWYLAPRLEHHHHHH | soluble
13 | RRKPGKCPVTYGQCLMLNPPNFCEMDGQCKRDLKCCMGMCGKSCVSPVKA | soluble
14 | ESCDLEVYDRVNQSDQLCVISGQGNKRVSFYVTEGVVRNLSLGDKMTVEKEGNAYEGVINDISTMVDDSNGLFKIKADLAQADSVATGSVVKVKVISGRSDNVMTVPVDAIYYDGGVGNVYVYEDGAVHKKEVEVGLYDSELAEIRSGLAADELVISTWSSQLYEGSTVNLKSEGGESAPAGKEPGTGRTETSAAAE | not soluble
15 | MTQHNDNDDDAALFRAAIGPVRPLRPSEMAITIKPPSRPRRRIIQHHQDEAKSKFAQLLRESAPLEAGDTISYRSKALPSRLFQRLKRGQFSVQDELDLHGATVVQAETLLRQFLLEAHMYEYGCVRIIHGKGLQSNGGTPVLKNLVNQLLRLRKDVLAFHSSPPAQGGTGAVLVLLTHH | soluble
16 | MSSFHATTIFAVQHKGRSAMSGDGQVTFGQAVVMKHTARKVRKLFNGKVLAGFAGSVADAFTLFEKFEAKLEEYNGNLKRAAVELAKEWRSDKVLRKLEAMLIVMNQDTLLLVSGTGEVIEPDDGILAIGSGGNYALAAGRALKKHAGESMSASEIARAALETAGEICVYTNDQIILEELE | soluble
17 | MAHHHHHHMTEGPLIVVGSVTLDQAARCYSPLSAPLRVRLEYAVLRPVVNPAWAATFEADIAYGRISVPLVQPTACSECMTPLNVPSSFLQHTPSDSIATLQPGELYQLDVHLETMELSKVEEKYVLQVGMLRLILLSGKTELADVNHVVQVKKNDDGELMRLIMNPLV | not soluble
18 | MDFYYLPGSAPCRAVQMTAAAVGVELNLKLTNLMAGEHMKPEFLKINPQHCIPTLVDNGFALWESRAICTYLAEKYGKDDKLYPKDPQKRAVVNQRLYFDMGTLYQRFADYYYPQIFAKQPANAENEKKMKDAVDFLNTFLDGHKYVAGDSLTIADLTVLATVSTYDVAGFELAKYPHVAAWYERTRKEAPGAAINEAGIEEFRKYFEK | soluble
19 | SPAAVASALEGCREPVPGIRCRDAFSAASGIIDKMACVPELAVSEISAPRIVSSLAGDGHALFVANSMPARDMDLYAAPVAQKPLQVALNRGVSGIDGIISTAAGFSAGLGKPTTLLIGDISFLHDLNALCLLNHPWNPLIVIVLNNHGGSIFSFLPIASQTDRLDECFATPQNFSIESAARTFGIDYACPETNGDFTQLYAEALTTKKSLIIEIRSDREKNLLLHRSLKARLDPVFEKADC | not soluble
20 | STTEEESLSAAEEGYNVQRDYWRQAEESDGFDIENIKLPPGMHGRVMGLITYNCQLCYRYPFPVLVKLYAKFGLHRYNLIKGTSFELAALMKFNMLQNYMSSFYMTLLAHDPDPAASSSQKTFQVRVDEQQFGTLGINCSIARPKHEGDLLEVSTKTPFIPHFHGGALGDGIFKGELPDCLSDDALNALMEAVSKDELPEHVLDDALYARAGGIFQGELPDWPSDDALNDGKRFYMLKESEWQATDWISMYLELVITTTDRSITEPEVLSKLEIVKVAIETATKDEEPSNERLKAYRAHFYITFKGLAEPRAPRQVFEIGEHVERQAIVRRVMGHRGDLTLKGKLCGGQYIKRRSLALKSGEESPNCKKQTRVG | soluble
21 | MSLAGTFAIAPTPFHDDGKIDDVSIDRLTDFYAEVGCEGVTVLGILGEAPKLDAAEAEAVATRFIKRAKSMQVIVGVSAPGFAAMRRLARLSMDAGAAGVMIAPPPSLRTDEQITTYFRQATEAIGDDVPWVLQDYPLTLSVVMTPKVIRQIVMDSASCVMLKHEDWPGLEKITTLRGFQKDGSLRPLSILCGNGGLFLDFEMERGADGAMTGYCFPDMLVDVVKLSKAGQRDLAHNLFDAHLPLIRYEHQQGVGLSVRKYVLKKRGLLSSSAQRKPGASLTDTAREEVDYLLSRLARVEGHHHHHH | not soluble
22 | MSLSLTPLSEKLRPNNLDTFIGQNHLLERLQYIISAPRLPSMLFFGPPGCGKSTLALLLAYKKSTNILRISAPETGIQQLRQKLTDIDILILDEIHRFSKAQQDFFLPLLESGKLTMLATTTENPSFSVTKQLLSRLNVLQLRQLGYNELKELVKKGTLFLNILLPDDVINFLATTAHGDARTLFNLIEYISILPEEKRVLEYIKINLPEILERHDKDGDSHYEYASALIKSIRGSNPDAALYYLACLLEGGEDPRFICRRLIISASEDIGLADPQALSLAVSCQQAVEFVGMPEGFIPLSETVVYLALARKSNSTYAAYSNAAREVRLHGAQPVPLHLRNPSTQLQKQWGYGREYKYPHNYPNAWVEQEYFPSTISNRSFYYPKEQGEEPKLNMWHNHIKKKYSEGHHHHHH | not soluble
23 | GVTGVTTGFTDLDKKTAGLQPSDLIIVAARPSMGKTTFAMNLCENAAMASEKPVLVFSLEMPAEQIMMRMIASLARVDQTKIRTGQNLDEIEWNKIASVVGMFKQKNNLFIDDSSGLTPTDVRSRARRVYRENGGLSMIMVDYLQLMRAPAFSDNRTLEIAEISRSLKALAKELQVPVVALSQLNRTLEQRGDKRPVNSDL | not soluble
